Reference: patent publication US10287317B2, “Proprotein convertase subtilisin kexin type 9 (PCSK9) allosteric binding ligands to modulate serum low density lipoprotein (LDL) levels” (SRX Cardio, LLC, priority 2013, dated 2019)
Where no end group is shown, it is not given here.

Columns and labels:
normal PCSK9 (WT) [1] = target: T1, normal PCSK9 (WT) (Homo sapiens, UniProt Q8NBP7); experiment: Cellular diI-LDL uptake in FL-83B cells with WT PCSK9; format: cell-based, mouse; conditions: FL83B, WT 1.2 ug/ml, pre-incubated 3 hrs at 37 C, dose dependent manner (FIG. 7)
Description: (§1) After 16 h, dil-LDL (5 ug/ml) was added to the incubation mixtures. After 4 h, fluorescence was measured (Ex: 520 nm/Em: 575 nm; cutoff: 550 nm). Dil-LDL uptake is calculated as RFU corrected for the number of cells. The PCSK9 and −/+SRX55 [SEQ ID NO: 2] mixtures were pre-incubated for 3 hrs at 37 C prior to addition to the cells.
(§2) LDL internalization was measured by uptake of a fluorescently tagged LDL molecule (diI-LDL) in the absence of exogenous PCSK9 (Cnt), in the presence of exogenous PCSK9 (normal PCSK9=WT, D374Y mutant PCSK9=DY), or in the presence of PCSK9 and a tested peptide (indicated as SRX##, or SRX if a single peptide results is shown in a graph). […]
(§3) Peptide activity was assessed by culturing cells with: i) no SRX peptide/PCSK9 protein complex (control, Cnt); ii) PCSK9 protein; and iii) SRX peptide/PCSK9 complex. […]
(§4) Cells were cultured using one of the combinations of conditions described in the preceding paragraph for 16 hours. After 16 hours, a quantity of diI-LDL (Low density lipoprotein coupled with 1,1′-dioctadecyl-3,3,3′,3′-tetramethylindocarbocyanine perchlorate) needed to bring the media concentration to 5 ug/mL of diI-LDL was added to the culture well and cells continued to be cultured under these new conditions for 4 additional hours. […] Fluorescence of the diI-LDL in the specimens were quantified using excitation at 530 nm and resulting emission at 580 nm. […]

normal PCSK9 (WT) [2] = target: T1, normal PCSK9 (WT); experiment: Cellular diI-LDL uptake in HepG2 cells with WT PCSK9; format: cell-based; conditions: HepG2, WT 1.2 ug/ml, pre-incubated 3 hrs at 37 C, dose dependent manner (FIG. 6)
Description: as §1, §2, §3, §4

T1 sequence (Q8NBP7 153-692): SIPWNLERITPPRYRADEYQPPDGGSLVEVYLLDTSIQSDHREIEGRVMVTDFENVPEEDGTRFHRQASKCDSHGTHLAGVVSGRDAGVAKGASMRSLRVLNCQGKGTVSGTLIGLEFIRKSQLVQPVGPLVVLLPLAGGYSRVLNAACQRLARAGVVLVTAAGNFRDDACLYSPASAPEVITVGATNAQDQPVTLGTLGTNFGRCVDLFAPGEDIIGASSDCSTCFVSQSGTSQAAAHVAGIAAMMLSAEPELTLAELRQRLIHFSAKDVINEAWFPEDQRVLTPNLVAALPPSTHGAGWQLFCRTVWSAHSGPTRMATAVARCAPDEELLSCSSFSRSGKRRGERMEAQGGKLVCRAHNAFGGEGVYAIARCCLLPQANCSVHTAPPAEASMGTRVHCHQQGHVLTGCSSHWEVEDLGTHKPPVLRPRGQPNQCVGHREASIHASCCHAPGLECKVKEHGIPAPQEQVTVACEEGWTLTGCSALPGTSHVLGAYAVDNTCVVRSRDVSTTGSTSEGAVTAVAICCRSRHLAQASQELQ

LDL internalization (dil-LDL % uptake vs Cnt) (normal PCSK9 (WT) [1]): positively modulated (increased)
LDL internalization (dil-LDL % uptake vs Cnt) (normal PCSK9 (WT) [2]): positively modulated (increased)
Substance: Val-Tyr-Val-Arg-Phe-Trp (VYVRFW; not fully specified (C-terminus); printed as Val-Tyr-Val-Arg-Phe-Trp) [Compound 1]
